Laboratory results as given in patent US20220033438A1 (GENOIMMUNE THERAPEUTICS, published 2022).

Tests used:
HLA-A0201 on T2 cells [1] = target: T1, HLA-A0201 on T2 cells (human); assay: T2 cell affinity test, 100 uM peptide overnight with human b2m, anti-HLA-A0201 FITC staining, flow cytometry
T1 construct: MHC class I molecule on TAP-deficient T2 cells; also called HLA-A0201 antigen
Method: (§1) 2 duplicate wells per group were used. […] The cells were collected by centrifugation at 200 g for 5 minutes. […] The mean fluorescence intensity (MFI) was then detected and analyzed by flow cytometry (BD FACSJazz™) and its software, as shown in FIG. 1.

HLA-A0201 on T2 cells [2] = target: T1, HLA-A0201 on T2 cells; assay: T2 cell affinity test, 100 uM peptide, flow cytometry; FI=(MFI sample-MFI background)/MFI background
Method: as §1

| Binder | MFI (HLA-A0201 on T2 cells [1]) | FI (fluorescence index) (HLA-A0201 on T2 cells [2]) |
| --- | --- | --- |
| KLMGIVNKV [wild-type polypeptide KLMGIVNKV (SEQ ID NO: 6)] | 648 | 1.89 |
| KLMGIVYKV (Synthetic 9-mer made by solid phase synthesis; It is the fragment of the mutated (N136Y) Twist neighbor protein; also called mutated polypeptide) [KLMGIVYKV polypeptide (SEQ ID NO: 2)] | 666 | 1.97 |
| KLMGIVYKL (Synthetic 9-mer; also called mutated polypeptide) [KLMGIVYKL polypeptide (SEQ ID NO: 4)] | 724 | 2.23 |
| KMMGIVYKL (Synthetic 9-mer; also called mutated polypeptide) [KMMGIVYKL polypeptide (SEQ ID NO: 5)] | 692 | 2.09 |
